Assay results reported in US20040248198A1 (ST JUDE CHILDREN S RESEARCH HOSPITAL, published 2004).
Each block holds one binder with its values, some of them ahead of it. Where no end group is shown, it is not given here.

Assays:
His-tagged mArfN37 = biological target: T1, His-tagged mArfN37 (mouse); assay: SPR (Biacore), His-tagged mArfN37 captured by anti-His antibody, Hdm2 peptide as analyte, reference cell subtracted
T1 construct: Captured on the SPR chip through a covalently attached Tetra-His antibody; also called His-mArfN37; His-tagged mArf37; not shown: thrombin-cleavable poly-His tag
T1 chain: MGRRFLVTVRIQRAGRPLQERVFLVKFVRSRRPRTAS
Description: (§1) Surface Plasmon Resonance. Binding studies were performed using a Biacore 3000 surface plasmon resonance (SPR) instrument (Biacore, Inc.). A Tetra-His™ Antibody (Qiagen, Inc.; Cat. #34670) was covalently attached to a carboxymethylated gold surface (C-1 chip; Biacore, Inc.). The carboxymethyl groups on the surface were activated with N-ethyl-N-(3-dimethylaminopropyl) carbodiimide (EDC) and N-hydroxysuccinimide (NHS) and the antibody was attached at pH 7.4 in 20 mM sodium phosphate buffer, 150 mM NaCl (PBS). Reactive sites remaining on the surface were blocked by reaction with ethanolamine. The His-tagged ligand was attached to the antibody by injecting a […] solution of the ligand in 10 mM HEPES, 150 mM NaCl, pH 7.4 (HBS-N buffer, Biacore) at a flow rate of 10 μL/Min through the flow cell. A reference cell was prepared similarly except that no His-tagged ligand was added. Binding was measured by flowing the non-His-tagged analyte through the reference and ligand-containing flow cells in sequence. Prior to injection of ligands, the chip surfaces were equilibrated in HBS-N buffer. Changes in the SPR response due to solvent differences and the injection process were monitored by injection of HBS-N buffer alone. Regeneration of the chip surface to remove bound analyte and ligand was accomplished by two 100 μL injections of 10 mM glycine, pH 2.0 through both flow cells. Data reported is-the difference in SPR signal between the flow cell containing analyte and the reference cell. Duplicate injections were made and the SPR response values reported are the average of these two injections.
A similar approach using short synthetic peptides and SPR was used to map the segments of Hdm2 that bind mArfN37 (FIG. 5c). […] The first of these as Arf-binding segment is termed “H1” and the second is termed segment “H2”.

His-tagged Hdm2 210-304 [1] = biological target: T2, His-tagged Hdm2 210-304 (human, UniProt Q00987 210-304); assay: SPR (Biacore), His-tagged Hdm2 210-304 captured by anti-His antibody, human Arf peptide as analyte, reference cell subtracted
T2 construct: not shown: thrombin-cleavable poly-His tag from pET28a
Description: as §1
(§2) Two libraries of peptides 15 amino acids in length were synthesized based on the sequence of exon 1β of mouse p19^Arf and the entire sequence of human p14^Arf. The sequence for the first peptide in each library corresponded to the first 15 amino acids of the protein sequences. […] This approach yielded two libraries of overlapping peptides spanning mouse p19^Arf residues 1-64 and human p14^Arf residues 1-132. The ability of these peptides to bind Hdm2 fragments was determined using the surface plasmon resonance (SPR) technique with a Biacore 3000 instrument.

His-tagged Hdm2 210-304 [2] = biological target: T2, His-tagged Hdm2 210-304; assay: SPR (Biacore), His-tagged Hdm2 210-304 captured by anti-His antibody, mouse Arf peptide as analyte, reference cell subtracted
Description: as §1, §2

T2 sequence (Q00987 210-304): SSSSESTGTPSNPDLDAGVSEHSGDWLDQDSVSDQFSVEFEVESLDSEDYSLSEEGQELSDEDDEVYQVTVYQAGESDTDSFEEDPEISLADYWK

B1: 230-244 (peptide)
peptide: EHSGDWLDQDSVSDQ
modifications: not fully specified
notes: also called Hdm2 library peptide, residues 230-244
binding result (His-tagged mArfN37): no binding (tested: not given)

B2: 300-314 (peptide)
peptide: ADYWKCTSCNEMNPP
modifications: not fully specified; cysteine pairing not given here
notes: also called Hdm2 library peptide, residues 300-314
binding result (His-tagged mArfN37): no binding (tested: not given)

B3: 76-90 (peptide)
peptide: AAAAPRRGAQLRRPR
modifications: not fully specified
notes: also called human p14Arf library peptide, residues 76-90
binding result (His-tagged Hdm2 210-304 [1]): no binding (tested: not given)

B4: 106-120 (peptide)
peptide: GHAGGAAPGRGAAGR
modifications: not fully specified
notes: also called human p14Arf library peptide, residues 106-120
binding result (His-tagged Hdm2 210-304 [1]): no binding (tested: not given)

B5: 26-40 (peptide)
peptide: HIPRLTGEWAAPGAP
modifications: not fully specified
notes: also called human p14Arf library peptide, residues 26-40
binding result (His-tagged Hdm2 210-304 [1]): no binding (tested: not given)

B6: 21-35 (peptide)
peptide: RVFVVHIPRLTGEWA
modifications: not fully specified
notes: also called human p14Arf library peptide, residues 21-35
binding result (His-tagged Hdm2 210-304 [1]): no binding (tested: not given)

B7: 116-130 (peptide)
peptide: GAAGRARCLGPSARG
modifications: not fully specified
notes: also called human p14Arf library peptide, residues 116-130
binding result (His-tagged Hdm2 210-304 [1]): no binding (tested: not given)

B8: 330-344 (peptide)
peptide: LPEDKGKDKGEISEK
modifications: not fully specified
notes: also called Hdm2 library peptide, residues 330-344
binding result (His-tagged mArfN37): no binding (tested: not given)

B9: 91-105 (peptide)
peptide: HSHPTRARRCPGGLP
modifications: not fully specified
notes: also called human p14Arf library peptide, residues 91-105
binding result (His-tagged Hdm2 210-304 [1]): no binding (tested: not given)

B10: 41-55 (peptide)
peptide: AAVALVLMLLRSQRL
modifications: not fully specified
notes: also called human p14Arf library peptide, residues 41-55
binding result (His-tagged Hdm2 210-304 [1]): no binding (tested: not given)

B11: 21-35 (peptide)
peptide: RVFLVKFVRSRRPRT
modifications: not fully specified
notes: also called mouse p19Arf library peptide, residues 21-35
binding result (His-tagged Hdm2 210-304 [2]): binds

B12: 81-95 (peptide)
peptide: RRGAQLRRPRHSHPT
modifications: not fully specified
notes: also called human p14Arf library peptide, residues 81-95
binding result (His-tagged Hdm2 210-304 [1]): no binding (tested: not given)

B13: 111-125 (peptide)
peptide: AAPGRGAAGRARCLG
modifications: not fully specified
notes: also called human p14Arf library peptide, residues 111-125
binding result (His-tagged Hdm2 210-304 [1]): no binding (tested: not given)

Binder: FSVEFEVESLDSEDY (not fully specified) [245-259]
binding result (His-tagged mArfN37): binds

B22: 1-15 (peptide)
peptide: MGRRFLVTVRIQRAG
modifications: not fully specified
notes: also called mouse p19Arf library peptide, residues 1-15
binding result (His-tagged Hdm2 210-304 [2]): binds

B25: 6-20 (peptide)
peptide: LVTVRIQRAGRPLQE
modifications: not fully specified
notes: also called mouse p19Arf library peptide, residues 6-20
binding result (His-tagged Hdm2 210-304 [2]): binds

B28: 26-40 (peptide)
peptide: KFVRSRRPRTASCAL
modifications: not fully specified
notes: also called mouse p19Arf library peptide, residues 26-40
binding result (His-tagged Hdm2 210-304 [2]): binds

Binder: WLDQDSVSDQFSVEF (not fully specified) [235-249]
binding result (His-tagged mArfN37): binds

Now from value to binder:

binding result (His-tagged Hdm2 210-304 [1]): no binding (tested: not given)
B14: 96-110 (peptide)
peptide: RARRCPGGLPGHAGG
modifications: not fully specified
notes: also called human p14Arf library peptide, residues 96-110

binding result (His-tagged Hdm2 210-304 [1]): no binding (tested: not given)
B15: 51-65 (peptide)
peptide: RSQRLGQQPLPRRPG
modifications: not fully specified
notes: also called human p14Arf library peptide, residues 51-65

binding result (His-tagged mArfN37): no binding (tested: not given)
B16: 210-224 (peptide)
peptide: SSSSESTGTPSNPDL
modifications: not fully specified
notes: also called Hdm2 library peptide, residues 210-224

binding result (His-tagged mArfN37): no binding (tested: not given)
B17: 220-234 (peptide)
peptide: SNPDLDAGVSEHSGD
modifications: not fully specified
notes: also called Hdm2 library peptide, residues 220-234

binding result (His-tagged mArfN37): no binding (tested: not given)
B18: 215-229 (peptide)
peptide: STGTPSNPDLDAGVS
modifications: not fully specified
notes: also called Hdm2 library peptide, residues 215-229

binding result (His-tagged mArfN37): no binding (tested: not given)
B19: 315-329 (peptide)
peptide: LPSHCNRCWALRENW
modifications: not fully specified; cysteine pairing not given here
notes: also called Hdm2 library peptide, residues 315-329

binding result (His-tagged mArfN37): no binding (tested: not given)
B20: 310-324 (peptide)
peptide: EMNPPLPSHCNRCWA
modifications: not fully specified; cysteine pairing not given here
notes: also called Hdm2 library peptide, residues 310-324

binding result (His-tagged mArfN37): no binding (tested: not given)
B21: 285-299 (peptide)
peptide: ESDTDSFEEDPEISL
modifications: not fully specified
notes: also called Hdm2 library peptide, residues 285-299

binding result (His-tagged mArfN37): no binding (tested: not given)
B23: 265-279 (peptide)
peptide: GQELSDEDDEVYQVT
modifications: not fully specified
notes: also called Hdm2 library peptide, residues 265-279

binding result (His-tagged mArfN37): no binding (tested: not given)
B24: 280-294 (peptide)
peptide: VYQAGESDTDSFEED
modifications: not fully specified
notes: also called Hdm2 library peptide, residues 280-294

binding result (His-tagged mArfN37): no binding (tested: not given)
B26: 260-274 (peptide)
peptide: SLSEEGQELSDEDDE
modifications: not fully specified
notes: also called Hdm2 library peptide, residues 260-274

binding result (His-tagged Hdm2 210-304 [1]): no binding (tested: not given)
B27: 46-60 (peptide)
peptide: VLMLLRSQRLGQQPL
modifications: not fully specified
notes: also called human p14Arf library peptide, residues 46-60

binding result (His-tagged mArfN37): no binding (tested: not given)
Binder: DSEDYSLSEEGQELS (not fully specified) [255-269]

binding result (His-tagged Hdm2 210-304 [1]): no binding (tested: not given)
B29: 71-85 (peptide)
peptide: RPSGGAAAAPRRGAQ
modifications: not fully specified
notes: also called human p14Arf library peptide, residues 71-85

binding result (His-tagged mArfN37): no binding (tested: not given)
B30: 325-339 (peptide)
peptide: LRENWLPEDKGKDKG
modifications: not fully specified
notes: also called Hdm2 library peptide, residues 325-339

binding result (His-tagged Hdm2 210-304 [1]): no binding (tested: not given)
B31: 61-75 (peptide)
peptide: PRRPGHDDGQRPSGG
modifications: not fully specified
notes: also called human p14Arf library peptide, residues 61-75

binding result (His-tagged Hdm2 210-304 [1]): no binding (tested: not given)
B32: 56-70 (peptide)
peptide: GQQPLPRRPGHDDGQ
modifications: not fully specified
notes: also called human p14Arf library peptide, residues 56-70

binding result (His-tagged mArfN37): no binding (tested: not given)
Binder: PEISLADYWKCTSCN (not fully specified; cysteine pairing not given here) [295-309]

binding result (His-tagged Hdm2 210-304 [1]): no binding (tested: not given)
B33: 66-80 (peptide)
peptide: HDDGQRPSGGAAAAP
modifications: not fully specified
notes: also called human p14Arf library peptide, residues 66-80

binding result (His-tagged mArfN37): no binding (tested: not given)
B34: 320-334 (peptide)
peptide: NRCWALRENWLPEDK
modifications: not fully specified
notes: also called Hdm2 library peptide, residues 320-334

binding result (His-tagged Hdm2 210-304 [1]): no binding (tested: not given)
Binder: PGGLPGHAGGAAPGR (not fully specified) [101-115]

binding result (His-tagged Hdm2 210-304 [1]): no binding (tested: not given)
B35: 31-45 (peptide)
peptide: TGEWAAPGAPAAVAL
modifications: not fully specified
notes: also called human p14Arf library peptide, residues 31-45

binding result (His-tagged mArfN37): no binding (tested: not given)
Binder: GKDKGEISEKAKLEN (not fully specified) [335-349]
